{"source": "paper PMC6242907", "about": "“Molecular basis of maintaining an oxidizing environment under anaerobiosis by soluble fumarate reductase” (Nature Communications, 2018)", "binders": {"B1": {"name": "His6-maltose-binding protein (H6-MBP)-fused Ero1 (56-424) (enzyme, yeast, UniProt Q03103 56-424, looked up)", "chain": "FNELNAINENIRDDLSALLKSDFFKYFRLDLYKQCSFWDANDGLCLNRACSVDVVEDWDTLPEYWQPEILGSFNNDTMKEADDSDDECKFLDQLCQTSKKPVDIEDTINYCDVNDFNGKNAVLIDLTANPERFTGYGGKQAGQIWSTIYQDNCFTIGETGESLAKDAFYRLVSGFHASIGTHLSKEYLNTKTGKWEPNLDLFMARIGNFPDRVTNMYFNYAVVAKALWKIQPYLPEFSFCDLVNKEIKNKMDNVISQLDTKIFNEDLVFANDLSLTLKDEFRSRFKNVTKIMDCVQCDRCRLWGKIQTTGYATALKILFEINDADEFTKQHIVGKLTKYELIALLQTFGRLSESIESVNMFEKMYGKRL", "notes": "Ero1, ER-resident flavoenzyme of yeast, residues 56-424; FAD cofactor; Uncleaved fusion (83 kDa) immobilised on the CM5 chip; a TEV site lies between H6-MBP and Ero1; The only purified MBP-Ero1 described in the methods is the H6-MBP fusion; also called MBP-Ero1; purified MBP-Ero1; source: E. coli Origami B(DE3), purified (HiTrap Ni2+, amylose)"}, "B2": {"name": "Ero1 (56-424), H6-MBP cleaved off (enzyme, yeast, UniProt Q03103 56-424, looked up)", "chain": "B1 chain", "notes": "Ero1, ER-resident flavoenzyme of yeast, residues 56-424; FAD cofactor; The ITC methods name only 'Ero1'; also called recombinant Ero1; source: E. coli Origami B(DE3), purified (HiTrap Ni2+, amylose, TEV cleavage, Ni2+ flow-through)"}}, "key": {"[1]": {"target": "T1, Osm1 (residues 32-501), 6x His-tagged (S. cerevisiae, UniProt P21375 32-501)", "T1 construct": "Osm1, soluble fumarate reductase of S. cerevisiae, amino acids 32-501, cloned in pET28a (NheI/XhoI); no removal of the tag is described except by trypsin for crystallisation; A31 is an extra residue from the cloning construct; The limits of the pET28a Osm1 used in the pull-down are not repeated in the methods; also called holo-Osm1; WT Osm1; source: also in lysate of BL21(DE3) co-expressing …", "T1 sequence (P21375 32-501)": "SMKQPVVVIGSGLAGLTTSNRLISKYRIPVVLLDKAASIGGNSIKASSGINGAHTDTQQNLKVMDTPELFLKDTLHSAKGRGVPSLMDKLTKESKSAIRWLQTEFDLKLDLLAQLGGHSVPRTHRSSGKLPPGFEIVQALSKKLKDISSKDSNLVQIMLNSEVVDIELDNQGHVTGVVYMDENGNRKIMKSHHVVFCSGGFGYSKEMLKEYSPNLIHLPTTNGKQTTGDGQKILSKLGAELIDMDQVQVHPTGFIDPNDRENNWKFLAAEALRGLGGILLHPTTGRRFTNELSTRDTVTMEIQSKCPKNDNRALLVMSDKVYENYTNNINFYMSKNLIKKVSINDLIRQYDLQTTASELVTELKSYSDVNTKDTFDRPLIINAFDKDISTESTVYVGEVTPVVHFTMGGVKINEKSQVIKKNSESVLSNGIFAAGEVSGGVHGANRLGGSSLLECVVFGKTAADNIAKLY", "experiment": "SPR; Biacore T-200, CM5 chip; MBP-Ero1 immobilised by amine coupling (1500 RU); Osm1 or chimeric Osm1 injected in PBS at 6.25 to 200 µM, 30 µL/min, 25 °C; affinity (steady-state) fitting", "conditions": "both partners purified"}, "[2]": {"target": "T1, Osm1 (residues 32-501), 6x His-tagged", "experiment": "ITC; nano-ITC; 2.5 µL injections of 1.6 mM Osm1 into 40 µM Ero1 in PBS", "conditions": "both partners purified"}}}
{"binder": "B1", "values": [{"measurement": "Kd", "setting": "[1]", "result": "~200", "unit": "µM"}]}
{"binder": "B2", "values": [{"measurement": "Kd", "setting": "[2]", "result": "~150", "unit": "µM"}]}
